Data reported in PMC8092228 (mBio, 2021).

Target: LOV-PAS-HK construct of Brucella abortus LOV-HK (residues 15 to 489), called the full-length protein (Brucella abortus)
Experiment: SEC with static light scattering (SEC-SLS)

Chain of LOV-PAS-HK construct of Brucella abortus LOV-HK (residues 15 to 489), called the full-length protein (enzyme) (A9MBM8 15-489 limits assumed): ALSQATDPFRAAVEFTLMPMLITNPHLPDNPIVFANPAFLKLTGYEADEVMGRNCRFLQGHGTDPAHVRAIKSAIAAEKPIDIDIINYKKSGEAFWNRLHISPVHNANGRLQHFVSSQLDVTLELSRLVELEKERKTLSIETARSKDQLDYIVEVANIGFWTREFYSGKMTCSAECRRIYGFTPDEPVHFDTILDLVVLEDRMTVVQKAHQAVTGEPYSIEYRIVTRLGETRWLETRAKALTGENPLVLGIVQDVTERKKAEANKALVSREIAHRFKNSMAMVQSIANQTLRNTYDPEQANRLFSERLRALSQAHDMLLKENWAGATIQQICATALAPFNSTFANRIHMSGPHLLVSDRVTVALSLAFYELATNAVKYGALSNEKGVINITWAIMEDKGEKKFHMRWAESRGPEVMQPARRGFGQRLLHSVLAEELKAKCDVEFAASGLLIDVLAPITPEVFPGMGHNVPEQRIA

**Q.** How did the stoichiometry N turn out when “LOV-PAS-HK construct of Brucella abortus LOV-HK (residues 15 to 489), called the full-length protein (enzyme)” was run?
**A.** Its stoichiometry N is 2.
